In the assay the target is T1, His-tagged full-length ATF4 (mouse, UniProt Q06507 1-349).
T1 sequence (looked up): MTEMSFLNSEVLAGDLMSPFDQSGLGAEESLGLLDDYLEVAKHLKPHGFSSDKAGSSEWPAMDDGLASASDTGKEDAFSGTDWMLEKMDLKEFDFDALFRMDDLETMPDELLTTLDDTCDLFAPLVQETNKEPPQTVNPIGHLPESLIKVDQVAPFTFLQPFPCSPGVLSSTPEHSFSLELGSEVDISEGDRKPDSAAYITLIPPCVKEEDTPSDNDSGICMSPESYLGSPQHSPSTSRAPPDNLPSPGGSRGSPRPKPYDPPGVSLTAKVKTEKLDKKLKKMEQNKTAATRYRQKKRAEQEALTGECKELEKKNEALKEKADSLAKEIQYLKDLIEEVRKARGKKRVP
In words: pull-down.

B1: GST-Hop2^81−147 (domain or fragment, mouse, UniProt O35047 81-147, looked up)
chain: VSDADLHGLDASIVALTAKVQSLQQSCRHMEAELKELTSALTTPEMQKEIQELKKECAQYTERLKNI
On to B1, for which the binding result is given as “binds”.

(Values after paper PMC7422940 (Journal of bone and mineral research : the official journal …, 2019).)
